For the test, the target named is Dbf4(5)Rad53 chimera (Dbf4-SGASG-Rad53) (S. cerevisiae) (UniProt P32325). Put plainly: AUC; sedimentation velocity, 50,000 rpm, 20 °C, 2 to 310 μM, 0.2 M NaCl, 0.02 M TRIS-HCl pH 8.0, 1.4 mM 2-mercaptoethanol, 5% v/v glycerol; weighted-average s isotherm fitted to a reversible monomer-dimer equilibrium; dimer to monomers.

pKd: −log10 of the molar value.

One may read the pKd as the Kd on a negative log10 scale, so that one unit is a factor of ten. Read a high pKd as a small Kd. One may read the stoichiometry N as the number of molecules, sites or subunits per partner or assembly. On to “Dbf4(5)Rad53 chimera (Dbf4-SGASG-Rad53) (from UniProt P32325 105-220; P22216 22-162)”, for which the pKd is 3.89 and the stoichiometry N was found to be 2.

(Values after paper PMC5041073.)
